One may read the stoichiometry N as the number of molecules, sites or subunits per partner or assembly.

Data set [1] deals with the molecule itself. The data set can be described thus: cryo-EM structure; apo SPY, ~0.8 mg/mL, 25 mM HEPES pH 7.5, 150 mM NaCl, 2 mM DTT; three conformations of the dimer at 3.6 to 3.9 Å.
Data set [2] concerns the molecule itself. Kind of data set: cryo-EM 2D class averages; apo SPY, flash-frozen solution; tetramer formed by side-by-side stacking of two SPY dimers.
Data set [3] concerns the target T1, Myc-spy Δ216 (deletion of residues 1-216, the N-terminal peptide and TPRs 1-5) (Arabidopsis thaliana, UniProt Q96301 217-914).
T1 construct: source: N. benthamiana, transient expression by agroinfiltration, in protein extract
T1 sequence (looked up): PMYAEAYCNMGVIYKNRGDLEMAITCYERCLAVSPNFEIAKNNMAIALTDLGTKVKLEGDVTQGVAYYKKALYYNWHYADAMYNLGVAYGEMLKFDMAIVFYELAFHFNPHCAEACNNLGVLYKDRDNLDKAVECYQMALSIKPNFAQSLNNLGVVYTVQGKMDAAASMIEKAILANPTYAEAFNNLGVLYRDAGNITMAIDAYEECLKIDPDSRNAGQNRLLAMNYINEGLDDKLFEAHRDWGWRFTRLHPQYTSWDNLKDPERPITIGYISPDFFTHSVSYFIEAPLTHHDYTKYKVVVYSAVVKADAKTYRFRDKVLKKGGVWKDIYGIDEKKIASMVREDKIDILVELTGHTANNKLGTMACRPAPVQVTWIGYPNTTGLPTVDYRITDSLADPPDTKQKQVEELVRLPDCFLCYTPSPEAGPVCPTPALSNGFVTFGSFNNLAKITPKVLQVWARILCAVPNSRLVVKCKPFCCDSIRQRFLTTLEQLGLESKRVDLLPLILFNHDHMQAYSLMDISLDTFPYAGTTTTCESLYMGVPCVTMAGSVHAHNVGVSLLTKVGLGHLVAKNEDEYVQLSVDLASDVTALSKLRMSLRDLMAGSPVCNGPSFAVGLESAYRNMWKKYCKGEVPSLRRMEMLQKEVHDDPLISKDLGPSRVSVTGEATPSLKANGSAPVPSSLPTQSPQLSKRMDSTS
The data set can be described thus: co-IP; FLAG-RGA co-expressed with Myc-SPY, Myc-spy mutants or Myc-GUS in N. benthamiana; IP with anti-cMyc agarose, blots with αMyc and αFLAG; co-IP'ed FLAG-RGA normalised to the IP'ed Myc protein, WT SPY set as 1. Conditions: partners not purified.

B1: Recombinant full-length Arabidopsis thaliana SPINDLY (SPY-WT-TEV-His10-Strep) (enzyme, UniProt Q96301 1-914, looked up)
chain: MVGLEDDTERERSPVVENGFSNGSRSSSSSAGVLSPSRKVTQGNDTLSYANILRARNKFADALALYEAMLEKDSKNVEAHIGKGICLQTQNKGNLAFDCFSEAIRLDPHNACALTHCGILHKEEGRLVEAAESYQKALMADASYKPAAECLAIVLTDLGTSLKLAGNTQEGIQKYYEALKIDPHYAPAYYNLGVVYSEMMQYDNALSCYEKAALERPMYAEAYCNMGVIYKNRGDLEMAITCYERCLAVSPNFEIAKNNMAIALTDLGTKVKLEGDVTQGVAYYKKALYYNWHYADAMYNLGVAYGEMLKFDMAIVFYELAFHFNPHCAEACNNLGVLYKDRDNLDKAVECYQMALSIKPNFAQSLNNLGVVYTVQGKMDAAASMIEKAILANPTYAEAFNNLGVLYRDAGNITMAIDAYEECLKIDPDSRNAGQNRLLAMNYINEGLDDKLFEAHRDWGWRFTRLHPQYTSWDNLKDPERPITIGYISPDFFTHSVSYFIEAPLTHHDYTKYKVVVYSAVVKADAKTYRFRDKVLKKGGVWKDIYGIDEKKIASMVREDKIDILVELTGHTANNKLGTMACRPAPVQVTWIGYPNTTGLPTVDYRITDSLADPPDTKQKQVEELVRLPDCFLCYTPSPEAGPVCPTPALSNGFVTFGSFNNLAKITPKVLQVWARILCAVPNSRLVVKCKPFCCDSIRQRFLTTLEQLGLESKRVDLLPLILFNHDHMQAYSLMDISLDTFPYAGTTTTCESLYMGVPCVTMAGSVHAHNVGVSLLTKVGLGHLVAKNEDEYVQLSVDLASDVTALSKLRMSLRDLMAGSPVCNGPSFAVGLESAYRNMWKKYCKGEVPSLRRMEMLQKEVHDDPLISKDLGPSRVSVTGEATPSLKANGSAPVPSSLPTQSPQLSKRMDSTS
modifications: fully auto-O-fucosylated (sites not mapped for the insect-cell protein)
notes: SPINDLY (SPY), Arabidopsis thaliana, full length (101.4 kDa), UniProt Q96301; The tag end is read from the construct name SPY-WT-TEV-His10-Strep; A TEV site lies between SPY and the tags; no cleavage is described; also called WT SPY; apo SPY; source: Trichoplusia ni (High Five) insect cells, baculovirus, purified (Talon, Strep-Tactin, SEC)
B1: the “stoichiometry N” value is 2 in data set [1] and 4 in data set [2].

B2: FLAG-RGA (35S:FLAG-RGA, pEG100-3xFR; contains a 6xHis-3xFLAG tag) (natural protein, Arabidopsis, UniProt Q9SLH3 1-587, looked up)
chain: MKRDHHQFQGRLSNHGTSSSSSSISKDKMMMVKKEEDGGGNMDDELLAVLGYKVRSSEMAEVALKLEQLETMMSNVQEDGLSHLATDTVHYNPSELYSWLDNMLSELNPPPLPASSNGLDPVLPSPEICGFPASDYDLKVIPGNAIYQFPAIDSSSSSNNQNKRLKSCSSPDSMVTSTSTGTQIGGVIGTTVTTTTTTTTAAGESTRSVILVDSQENGVRLVHALMACAEAIQQNNLTLAEALVKQIGCLAVSQAGAMRKVATYFAEALARRIYRLSPPQNQIDHCLSDTLQMHFYETCPYLKFAHFTANQAILEAFEGKKRVHVIDFSMNQGLQWPALMQALALREGGPPTFRLTGIGPPAPDNSDHLHEVGCKLAQLAEAIHVEFEYRGFVANSLADLDASMLELRPSDTEAVAVNSVFELHKLLGRPGGIEKVLGVVKQIKPVIFTVVEQESNHNGPVFLDRFTESLHYYSTLFDSLEGVPNSQDKVMSEVYLGKQICNLVACEGPDRVERHETLSQWGNRFGSSGLAPAHLGSNAFKQASMLLSVFNSGQGYRVEESNGCLMLGWHTRPLITTSAWKLSTAAY
notes: RGA, an Arabidopsis DELLA protein; called the full-length RGA substrate in planta; RGA is O-fucosylated by the co-expressed SPY to differing degrees; also called His-FLAG-RGA; source: N. benthamiana, transient expression by agroinfiltration, in protein extract
In the case of B2, the “fold change of co-IP'ed FLAG-RGA against WT SPY” value in data set [3] came to 6.3 fold.

(Values after article PMC10027727, “Structure and dynamics of the Arabidopsis O-fucosyltransferase SPINDLY” (Nature Communications, 2023).)
